For data set [1], the system named is T1, IMP-11.
T1 construct: gene blaIMP-11; signal peptide (first 19 aa) removed; His tag cut off with PreScission protease; expressed in E. coli Rosetta II
Put plainly: spectrophotometric initial hydrolysis rates, […] nm, Michaelis-Menten. To be noted: 50 mM sodium phosphate pH 7.0, 50 μM ZnCl2, 24 ± 1 °C. The format is biochemical.

Data set [2] deals with CC(C)(O/N=C(\C(=O)N[C@@H]1C(=O)N2C(C(=O)[O-])=C(C[n+]3ccccc3)CS[C@H]12)c1csc(N)n1)C(=O)O. As to the kind of experiment: purified protein. The format is biochemical, Klebsiella pneumoniae. To be noted: 50 mM sodium phosphate pH 7.0, 50 μM ZnCl2, 24 ± 1 °C, 24.0 °C.
Data set [3] has as its system CC1(C)S[C@@H]2[C@H](NC(=O)[C@H](N)c3ccccc3)C(=O)N2[C@H]1C(=O)O. As to the kind of experiment: purified protein. The format is biochemical, Klebsiella pneumoniae. To be noted: 50 mM sodium phosphate pH 7.0, 50 μM ZnCl2, 24 ± 1 °C, 24.0 °C.
Data set [4] concerns CO/N=C(\C(=O)N[C@@H]1C(=O)N2C(C(=O)O)=C(COC(C)=O)CS[C@H]12)c1csc(N)n1. As to the kind of experiment: purified protein. The format is biochemical, Klebsiella pneumoniae. Particulars: 50 mM sodium phosphate pH 7.0, 50 μM ZnCl2, 24 ± 1 °C, 24.0 °C.
Data set [5] has as its system C[C@@H](O)[C@H]1C(=O)N2C(C(=O)O)=C(SCCN=CN)C[C@H]12. As to the kind of experiment: purified protein. To be noted: 50 mM sodium phosphate pH 7.0, 50 μM ZnCl2, 24 ± 1 °C, 24.0 °C. The format is biochemical, Klebsiella pneumoniae.
The test system of data set [6] is C[C@@H](O)[C@H]1C(=O)N2C(C(=O)O)=C(S[C@@H]3CN[C@H](C(=O)N(C)C)C3)[C@H](C)[C@H]12. Put plainly: purified protein. The format is biochemical, Klebsiella pneumoniae. Particulars: 50 mM sodium phosphate pH 7.0, 50 μM ZnCl2, 24 ± 1 °C, 24.0 °C.
For data set [7], the system named is T1, IMP-11. Put plainly: spectrophotometric initial hydrolysis rates, […] nm, Michaelis-Menten. The format is biochemical. Particulars: 50 mM sodium phosphate pH 7.0, 50 μM ZnCl2, 24 ± 1 °C. This is another data set of the same source.
Data set [8] relates to T1, IMP-11. Described as above. To be noted: 50 mM sodium phosphate pH 7.0, 50 μM ZnCl2, 24 ± 1 °C. The format is biochemical. The source holds these as a separate data set.

Consider six compounds from publication PMC6821933, “IMP-68, a Novel IMP-Type Metallo-β-Lactamase in Imipenem-Susceptible Klebsiella pneumoniae” (mSphere, 2019).

As to `C[C@@H](O)[C@H]1C(=O)N2C(C(=O)O)=C(S[C@@H]3CN[C@H](C(=O)N(C)C)C3)[C@H](C)[C@H]12` [Meropenem], the Km (commonly the concentration of substrate that gives half-maximal velocity) in the data set with IMP-11 [1] stood at 14.8 ± 2.8 µM.

In the case of IMP-68 (Klebsiella pneumoniae), the Km in data set [2] was found to be 326 ± 131 µM; in data set [3] it was 465 ± 200 µM; in data set [4], 10.3 ± 2.3 µM; in data set [5], 347 ± 52.2 µM; in data set [6] it was 10.1 ± 0.94 µM. Moreover, the kcat (commonly the number of substrate molecules converted per active site and unit of time at saturation) in data set [2] was determined as 3.9 ± 2.1 s⁻¹; in data set [3] it was 1.7 ± 0.44 s⁻¹; in data set [4], 25.7 ± 1.3 s⁻¹; in data set [5], 36.7 ± 7.8 s⁻¹; in data set [6], 9.7 ± 1.7 s⁻¹. Moreover, the kcat/Km (commonly the second-order rate constant that governs catalysis at low substrate concentration) came to 12000 M⁻¹ s⁻¹ in data set [2]; 3700 M⁻¹ s⁻¹ in data set [3]; 2.5e+06 M⁻¹ s⁻¹ in data set [4]; 110000 M⁻¹ s⁻¹ in data set [5]; 890000 M⁻¹ s⁻¹ in data set [6].

Turning to `CC1(C)S[C@@H]2[C@H](NC(=O)[C@H](N)c3ccccc3)C(=O)N2[C@H]1C(=O)O` [Ampicillin], in the data set on IMP-11 [7], the Km came out at 830 ± 248 µM.

Turning to `C[C@@H](O)[C@H]1C(=O)N2C(C(=O)O)=C(SCCN=CN)C[C@H]12` [Imipenem], the Km in the data set on IMP-11 [1] came to 41 ± 18.4 µM.

As for `CO/N=C(\C(=O)N[C@@H]1C(=O)N2C(C(=O)O)=C(COC(C)=O)CS[C@H]12)c1csc(N)n1` [Cefotaxime], in the data set on IMP-11 [8], the Km stood at 11.8 ± 2.2 µM.

With `CC(C)(O/N=C(\C(=O)N[C@@H]1C(=O)N2C(C(=O)[O-])=C(C[n+]3ccccc3)CS[C@H]12)c1csc(N)n1)C(=O)O` [Ceftazidime], the Km in the data set with IMP-11 [8] amounted to 232 ± 18.9 µM.
